{"source": "the DeepSol protein solubility set", "data": [{"test": "soluble on expression in E. coli; label from the status in PepcDB or PDB records", "values": [{"sequence": "MTVIVGPKTKPPEAIKDASMARQKQMVNAHYDRLASAKERGEKVAATFVPGNLNELLMCFDMVNNLPEVNAIQNGLRRQSGGYVMEAEKLGHSEDVCTYVKSDIGMMAKGNIGPNGKPLPDPDVLLLSYTGCFTFMKWFELLRRQYKCETIMFQTPYLADGRITKDMISYMVKQLRQDVIPKLERISGVKFDIDRLREYLRKSAKAEDDHVWVLQSAKHKPSPIDAYFGGIYYIGPIFGAFRGTDDAIEYYKFLRAEVEQRIAQGKGPVTPDGDMGQERYRLVVEGPPNYTNFRQFWKMFYDEGAVVVASSYTKVGGTYDYGFRHDPDRPLESLAEYCLNVYTNRNLPMRVDMLENYINEYEADGLLINSIKSCNSFSAGQLLMMREVEKRTGKPAAFIETDLVDPRYFSAANVKNRLESYFQMIEQKRAGFRGAA", "soluble on expression in E. coli": "not soluble"}, {"sequence": "MVDREWVLKIAKLARLELKEEEIEVFQKQLSDILDFIDQLKELDTENVEPYIQEFEETPMREDEPHPSLDREKALMNAPERKDGFFVVPRVVEV", "soluble on expression in E. coli": "soluble"}, {"sequence": "MDYLPLFADLKQRPVLIVGGGEVAARKIELLHRAGAQVWVVAQTLSSELEQQYQDGRIHWLAQDFLPEQLDNVFLVIAATNDTVLNAAVFAAADQRCILANVVDDQPLCSFIFPSIVDRSPLVVAISSSGQAPVLARILREKLEALLPTRLSDMAAIAGRWRGRVKQHMASMGERRRFWEHAFSGRFASLISRGQLTEAENELQLSLEGQHRALGEVALVGAGPGDAGLLTLRGLQVMQQADVVLYDHLVSPEVLDLVRRDAERICVGKRAGAHSVTQEATNQLLVTLAQQGKRVVRLKGGDPFIFGRGGEELQVVAQAGIPFQVVPGVTAAAGATAYAGIPLTHRDHAQSVTFITGHCRPDGDDLDWQTLARGRQTLAIYMGTVKAAAISQQLIAHGRSSTTPVAVIGRGTRVDQQVLIGTLAQLESLAQQAPTPALLVIGEVVNLHHQIAWFGQQPQTESAISPSVVNLA", "soluble on expression in E. coli": "not soluble"}, {"sequence": "VINESEKEMIDSIFEFDDRIAEEVMTPRTEVYLINIDTPLNKYVDELLEIKYSRVPVFEGDSDNIIGILYIKDFIVEARKVGFENVNIKNIIHSPYFVPERKNINELFKELQAAKKHMAVLIDEYGGFSGIVTIEDLIEEVMGNISDE", "soluble on expression in E. coli": "soluble"}, {"sequence": "MKVLCYGVRDVELPIFEACNKEFGYDIKCVPDYLNTKETAEMAAGFDAVILRGNCFANKQNLDIYKKLGVKYILTRTAGTDHIDKEYAKELGFPMAFVPRYSPNAIAELAVTQAMMLLRHTAYTTSRTAKKNFKVDAFMFSKEVRNCTVGVVGLGRIGRVAAQIFHGMGATVIGEDVFEIKGIEDYCTQVSLDEVLEKSDIITIHAPYIKENGAVVTRDFLKKMKDGAILVNCARGQLVDTEAVIEAVESGKLGGYGCDVLDGEASVFGKDLEGQKLENPLFEKLVDLYPRVLITPHLGSYTDEAVKNMVEVSYQNLKDLAETGDCPNKIK", "soluble on expression in E. coli": "soluble"}, {"sequence": "MDNKLGLNKMNKTLIALAVSAAAVATGAYADGINQSGDKAGSTVYSAKGTSLEVGGRAEARLSLKDGKAQDNSRVRLNFLGKAEINDSLYGVGFYEGEFTTNDQGKNASNNSLDNRYTYAGIGGTYGEVTYGKNDGALGVITDFTDIMSYHGNTAAEKIAVADRVDNMLAYKGQFGDLGVKASYRFADRNAVDAMGNVVTETNAAKYSDNGEDGYSLSAIYTFGDTGFNVGAGYADQDDQNEYMLAASYRMENLYFAGLFTDGELAKDVDYTGYELAAGYKLGQAAFTATYNNAETAKETSADNFAIDATYYFKPNFRSYISYQFNLLDSDKVGKVASEDELAIGLRYDF", "soluble on expression in E. coli": "not soluble"}, {"sequence": "MFSGKTSRLIELMERHILAGRKVTLFKPEIDSRYSENEVVTHKGIKLPAVIAPTDERFGEFLAARTRDSNVLGFDEAQFWKPSSRLPQHLEDLANSGRTVYVAALNRDHFGNPFRMTVDILAISDEIYTLSAVCSRCGSDAIFTQRIINGSPAFGEIIRIGGKDLYEPRCRNCFVWPSAQKRITDL", "soluble on expression in E. coli": "soluble"}, {"sequence": "MGSDKIHHHHHHMLQIKRKINATQSLMKITRAMEMVARAKVRKIESEYQKFKPFYDEVKRLWALVPAESLDPIFFEEGNRDLIVVITSDMGLCGSFNSEILREAERVISESRDPHLILVGLKAINHFKDGKVLKMYDRFYEIPDFRNGSTIVEDILNFLDGKPARVRVIFSRFKNVLIQRPEVHELLPIKKEEKKREDFEYEPRLEQIAPLIFHYYLSATLMELMFQTKIGEYYARQNAMKNATDNAQEVIRELTLAYNKARQASITQELIEIVTGAEALKEIEK", "soluble on expression in E. coli": "not soluble"}, {"sequence": "MDYYYSLISPPCQSAILLAKKLGITLNLKKTNVHDPVERDALTKLNPQHTIPTLVDNGHVVWESYAIVLYLVETYAKDDTLYPKDPKVRSVVNQRLFFDIGTLYKRIIDVIHLVMKKEQPSDEQMEKLKGALDLLEQFVTERAYAAADHLTVADICLLGTVTALNWLKHDLEPFPHIRAWLERVRAEMPDYEEFSKQVADDTLAYVASRK", "soluble on expression in E. coli": "soluble"}, {"sequence": "MSLAIQMTTKTTYQWPQSKDIYPYRPGRFDAPKHWRYNLRSFLNRGSIRRFEQFINQHPFLIDIFNTHLDYSYPVACRFLDKRFNASQRFHAVCENLLFLPEKLTALSTPLWEKPLSFGEVIPDFEMTLSMTTHQPMEGYWVLELWHKPRNELVYLLTFAKLGDALLIAVVQGPNFEGSKEMVKQLTKLCHGLRPAYLMVETMKSLTKILGYNKLLGIPQKYQNKSRFIQSKQYTVDYDAIFGESGGELKDYWELPLEMDRNLDDIPSKKRSMYRKRYAMLDDLAKVIEEKLGLEGHHHHHH", "soluble on expression in E. coli": "not soluble"}, {"sequence": "MGSDKIHHHHHHMANRLNQLLKQWLSQKDTQKWVLATIIETDGSSYRKAGAMMMINDLGQYFGLLSGGCLESDIMLQARRCWDSGRNRIVEYDMREEEDLAWKLGIGCGGMVRILLQPVDEANQYLQLDSLYALLESNQTAEYCQVINDQVPLNTLKTLTLKQAAPEQAKSIEGALKKADTDRKTETQQGVFKQYLKPAPHLAVFGGGVDARPVVAIATQLGWQVTLVDPRTSYARNGHFDNSVSVVRDAIESLEQNRWLQQIDMAIIMTHNIKLDAQSLALVQKSSAKYVGMLGPIHRTDRVLDLIPTTREQLVKPLANPVGLRLGGELPESIALSMLSEAHAFIEQQNGLSISGILRQ", "soluble on expression in E. coli": "not soluble"}, {"sequence": "MKVLTVVIPCYNSAEYMDRAIESLLIGDEELEILIVNDGSMDNTSIIADEYEKKYPNTIRVIHKENGGHGDAINTGLKHSKGVYFKVLDSDDWFDKASLKKVLEVLKNMIKDSKSLDMLISNYVYENFSINKSRSINYKGAMPKEKIFTWDSLGHLKSSQNILMHSVIYRTELLRECNLDLPKHTFYVDNIFVYKPLPYVKTMYYLDVDLYRYFIGREDQSVNEKVMIKRIDQQIKVTKILIDCYNPMLLNCKKLRKYMVKYLVMMMTVSTVLLIKDNTEQSLNKKRELWSYLHSKNRKLYFEVNKSFLGLLIQIKGFVGRKIILLGYSLSRKVFGFNLEHHHHHH", "soluble on expression in E. coli": "not soluble"}, {"sequence": "MVNQEKTLDVGFTHADFAALLDRYDYHFNPGDIVAGTVFSIEPKGALIDIGAKTAAYIPIQEMSINRIESPEEVLQPNETREFFILADENEEGQLTLSIRRIEYMRAWERVRQLQAEDATVRSQVFATNRGGALVRIEGLRGFIPGSHISTRVNKEELVGEELPLKFLEVDEERNRLVLSHRRALVERKMNKLEVGEVVVGTVRGIKPYGAFIDIGGVSGLLHISEISHDHIDTPHSVFNVNDQVKVMIIDLDAERGRISLSTKQLEPEPGDMVKNPQLVYEKAEEMAERYRQQLLQQQQQAAGETPEEGMEDIPEATEDDSPAPILQEALEHHHHHH", "soluble on expression in E. coli": "not soluble"}, {"sequence": "MGSDKIHHHHHHMDVDLGKLFFCGFNDFNEEVKEIIRKYRPTGILIYPGVLSKEYLLMDFMSFLSKEGDFLISSDHEGGQLEVLKYVPSSPGNLAFGKNSPDVTYRYSRVAGKIMEIVGLNMVFAPVLDLLSEESSSVIDIRSYGSDPKIVAEHGARACEGYLEGGVIPCIKHFPGHGKAREDSHLTLPVVDAPFEKLWEEDLLPFRKVLEREKKVTVMTAHVRYSSIDSLPATLSEKIITDVLREKIGFDGLVISDAMEMSAVSNNFSVEEIVSLFLNAGGNMILLGDYRNLPVYYETLVKLLEDGKVQKDKVERSIRTVEKYLAFAKKNSGVGFLADVSMKAVEFLGFEKIDHTSEVTLLVPSSENLSQADTTGGDYDQIPEIVSRFFEVENVVRYTVEDGPEFVEGDLIFDFVADIPNEKALKAHLSLPAEKTVYFVLRNPFDVRYFEGRKIVVTRSTKPISIYKSLEHFLGRCDS", "soluble on expression in E. coli": "not soluble"}, {"sequence": "FRRTGIRRIIIGQDQILFESSDNTVQIFPLNTLKSVDLYSTYDEMIELKAHRQPKITLSKSWIKRKDYRFIVSYLRERSATSGYKYTDYR", "soluble on expression in E. coli": "not soluble"}, {"sequence": "MAHHHHHHMEAFAITPLAEDDTTFVKDAQQFLAVIADMQREAEQRRCLLDDLRQKEAAAEMELEKCLAVREAVVARMAHTKAEGLELQSEYKALTTQQRAVEAEVLELRRQKSHWKKVLQEFQGSSSSSHLLGSGNTDGATVKSASSLDRALHAWSQLPHGSMFLKELKKTLTEFVAELAVNAGSNTNDNSNTTHNGTSTEYTTAFLDPSSVFPHLPPLSKVEEAIILLIPFSA", "soluble on expression in E. coli": "not soluble"}, {"sequence": "MAHHHHHHMANRTDASAIKNFGSNPQYLISNIIRSKIYDSPYWKEKCFALTSESIIDQAINLKYVGGTYGGNRKPTRFLCLILKLLQIQPDKDIIYEYIKNEDFVYLRALGIFYLRLIGKSLEVYNHLEPILFDYRKIRMRLQNGTFEKIYMDVFVDNCLILNNFLDVDFPTLTKRQVLEENNLLQRKNLEYYKALLNISSDNELFKNNEDTTHNKNKEINKNKNEYKQRDMLERHKKINKYSSEDDHNYYHKKEGNYDKNKKHNKIYNHKYNNKYDDEERRHHSDYSSDMDRKSRKKEKKRTHSKYDHKKKKEKRNYSSDSKHSFTSSEYSVQNKKEEHDKKKKKLFFLKKQKKKNYHSSSQSNHSYDENKKDELSIDKWNEIRKELGMKPLK", "soluble on expression in E. coli": "soluble"}, {"sequence": "MSLKYKLLVLDLDGTLTNAKKEITLHNREALIRVQQQGVKLILASGRPTFGIVPLADELRMKEFGGFILSYNGGEIIDWSTGEIVYANVLPDEVIPRLYECATRNQLPILTYDRQYIITEYPDDVYVRKEAFLNKMQIYPSTDFLKDIRLPLPKCLIVGEPHRLIPIEAELSVELQGQLSVYRSEPFFLELVPQGIDKAQSLSVLLNKLNMNREEMVAVGDGYNDLSMIQFAGLGVAMGNAQEPVKKAADYITLSNEEDGVAAVVNKFFTKAPEKGEGHHHHHH", "soluble on expression in E. coli": "soluble"}, {"sequence": "MGSDKIHHHHHHMYKLNQNETPLFNALMEYVNRDTIPFHVPGHKKGNGIDKEFKNFIGENPFKIDVTVFKLVDSLHHPTGPIKKAQELAADAYGSKAAFYSVNGTSGAIQGMILSVVGDGDKIIVPRNVHKSVTAGIILSGAVPVYMHPEVDRRVGIAHGVSPETVGETLKNNPDAKAVLLINPTYYGVSTDIKKIADIVHSYDIPLIVDEAHGPHLSFNDRLPVSALKAGADMCAQSTHKIIGALTQMSLLHVNSDRIDMNRVQQIMNLLQTTSPSYILMASMDCARRQIALHGKELLDGTIDLCNYARREINKIPGFYCFGEEVLGKPGSYAFDPTKLTITCTDLGITGYDLDMLLANDYHIQVELSDLYNVLAVGSFGDTKENIDALINALRQISKSISSTVKNKKNSFIDIPDVPERILSPRDAFNGAKESMLIKDSVGKTSGEFLMAYPPGIPVLCPGEIITQEIIDYVSDLKAAGLYVQGTEDPDVNYIKVLK", "soluble on expression in E. coli": "not soluble"}, {"sequence": "MSLNSNEKMGIFQGKKMKTKIIVIVGPTAVGKTALAIEVAKRFNGEVVSGDSQQVYRGLDIGTAKASPEEQAAVPHHLIDVREITESYSAFDFVSEAKMTIEDIHSRGKLAIIAGGTGLYIQSLLEGYHLGGETPHEEILAYRASLEPYSDEELAHLVEQAGLEIPQFNRRRAMRALEIAHFGQDLENQEILYEPLIICLDDERSQLYERINHRVDLMFEAGLLDEAKWLFDHSPNVQAAKGIGYKELFPYFRGEQTFEEARESLKQATRRFAKRQLTWFRNRMQVTFYQIGESGVQDRILSQIEEFLDDEGHHHHHH", "soluble on expression in E. coli": "soluble"}, {"sequence": "DQEVRLENRITFQLELVGLERVVRISAKPTKRLQEALQPILAKHGLSLDQVVLHRPGEKQPMDLENPVSSVASQTLVLDTPPDAKMSEARS", "soluble on expression in E. coli": "soluble"}]}]}
